# Measurements: patent US20090098124A1 (MacroGenics, published 2009)
# Changes are numbered by the printed parent chain. In names and notes the source's numbering stands.
# T1: soluble dimeric FcγRIIB (extracellular domain fused to hinge-CH2-CH3 of human IgG2) (human, UniProt P31994 43-217)
# T1 construct: extracellular domain; also called FcRIIB; FcRIIB-Fc; not shown: human IgG2 hinge-CH2-CH3
# T1 sequence (looked up): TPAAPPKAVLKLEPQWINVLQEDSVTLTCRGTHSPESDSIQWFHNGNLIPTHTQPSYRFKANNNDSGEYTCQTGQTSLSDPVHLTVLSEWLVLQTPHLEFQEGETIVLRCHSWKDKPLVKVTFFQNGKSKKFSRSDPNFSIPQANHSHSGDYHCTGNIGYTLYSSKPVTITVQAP
# B1: IgG1 Fc mutant A231V, Q386H, V412M (antibody)
# heavy: ASTKGPSVFPLAPSSKSTSGGTAALGCLVKDYFPEPVTVSWNSGALTSGVHTFPAVLQSSGLYSLSSVVTVPSSSLGTQTYICNVNHKPSNTKVDKKVEPKSCDKTHTCPPCPVPELLGGPSVFLFPPKPKDTLMISRTPEVTCVVVDVSHEDPEVKFNWYVDGVEVHNAKTKPREEQYNSTYRVVSVLTVLHQDWLNGKEYKCKVSNKALPAPIEKTISKAKGQPREPQVYTLPPSRDELTKNQVSLTCLVKGFYPSDIAVEWESNGHPENNYKTTPPVLDSDGSFFLYSKLTMDKSRWQQGNVFSCSVMHEALHNHYTQKSLSLSPGK
# B2: IgG1 Fc mutant P244H, L358M, V379M, N384K, V397M (antibody)
# heavy: B1 heavy with V114A, P127H, L241M, V262M, N267K, H269Q, V280M, M295V
# B3: IgG1 Fc mutant P247L, W313R, E388G (antibody)
# heavy: B1 heavy with V114A, P130L, W196R, H269Q, E271G, M295V
# B4: IgG1 Fc mutant V282E, V369I, L406F (antibody)
# heavy: B1 heavy with V114A, V165E, V252I, H269Q, L289F, M295V
# B5: IgG1 Fc mutant K334E, E380D, G446V (antibody)
# heavy: B1 heavy with V114A, K217E, E263D, H269Q, M295V, G329V
# B6: IgG1 Fc mutant K246N, Q419R, P396L (antibody)
# heavy: B1 heavy with V114A, K129N, H269Q, P279L, M295V, Q302R
# B7: IgG1 Fc mutant D221E, D270E, V308A, Q311H, P396L, G402D (antibody)
# heavy: B1 heavy with D104E, V114A, D153E, V191A, Q194H, H269Q, P279L, G285D, M295V
# B8: IgG1 Fc mutant V303I, V369F, M428L (antibody)
# heavy: B1 heavy with V114A, V186I, V252F, H269Q, M295V, M311L
# B9: IgG1 Fc mutant R301H, K340E, D399E (antibody)
# heavy: B1 heavy with V114A, R184H, K223E, H269Q, D282E, M295V
# B10: IgG1 Fc mutant K246E, V284M, V308A (antibody)
# heavy: B1 heavy with V114A, K129E, V167M, V191A, H269Q, M295V
# B11: IgG1 Fc mutant V273I, K326E, L328I, P396L (antibody)
# heavy: B1 heavy with V114A, V156I, K209E, L211I, H269Q, P279L, M295V
# B12: IgG1 Fc mutant A378V, N390I, V422I (antibody)
# heavy: B1 heavy with V114A, A261V, H269Q, N273I, M295V, V305I
# B13: IgG1 Fc mutant P247L, A330T, S440G (antibody)
# heavy: B1 heavy with V114A, P130L, A213T, H269Q, M295V, S323G
# B14: IgG1 Fc mutant K290E, V369A, T393A, P396L (antibody)
# heavy: B1 heavy with V114A, K173E, V252A, H269Q, T276A, P279L, M295V
# B15: IgG1 Fc mutant P247L, I253N, K334N (antibody)
# heavy: B1 heavy with V114A, P130L, I136N, K217N, H269Q, M295V
# B16: IgG1 Fc mutant K326Q, K334E, T359N, T366S (antibody)
# heavy: B1 heavy with V114A, K209Q, K217E, T242N, T249S, H269Q, M295V
# B17: IgG1 Fc mutant D221Y, M252I, A330G, A339T, T359N, V422I, H433L (antibody)
# heavy: B1 heavy with D104Y, V114A, M135I, A213G, A222T, T242N, H269Q, M295V, V305I, H316L
# B18: IgG1 Fc mutant K290T, N390I, P396L (antibody)
# heavy: B1 heavy with V114A, K173T, H269Q, N273I, P279L, M295V
# B19: IgG1 Fc mutant P343S, P353L, S375I, S383N (antibody)
# heavy: B1 heavy with V114A, P226S, P236L, S258I, S266N, H269Q, M295V
# B20: IgG1 Fc mutant P244A, K326I, C367R, S375I, K447T (antibody)
# heavy: B1 heavy with V114A, P127A, K209I, C250R, S258I, H269Q, M295V, K330T
# B21: IgG1 Fc mutant K326I, S408N, P396L (antibody)
# heavy: B1 heavy with V114A, K209I, H269Q, P279L, S291N, M295V
# B22: IgG1 Fc mutant F275L, Q362H, N384K, P396L (antibody)
# heavy: B1 heavy with V114A, F158L, Q245H, N267K, H269Q, P279L, M295V
# B23: IgG1 Fc mutant K246R, S298N, I377F (antibody)
# heavy: B1 heavy with V114A, K129R, S181N, I260F, H269Q, M295V
# B24: IgG1 Fc mutant F243L, V305I, A378D, F404S, P396L (antibody)
# heavy: B1 heavy with V114A, F126L, V188I, A261D, H269Q, P279L, F287S, M295V
# B25: IgG1 Fc mutant C229Y, A287T, V379M, P396L, L443V (antibody)
# heavy: B1 heavy with C112Y, V114A, A170T, V262M, H269Q, P279L, M295V, L326V
# B26: IgG1 Fc mutant K222N, T335N, K370E, A378V, T394M (antibody)
# heavy: B1 heavy with K105N, V114A, T218N, K253E, A261V, H269Q, T277M, M295V
# B27: IgG1 Fc mutant K246I, Q362H, K370E (antibody)
# heavy: B1 heavy with V114A, K129I, Q245H, K253E, H269Q, M295V
# B28: IgG1 Fc mutant E269K, K290N, Q311R, H433Y (antibody)
# heavy: B1 heavy with V114A, E152K, K173N, Q194R, H269Q, M295V, H316Y
# B29: IgG1 Fc mutant V397M, T411A, S415N (antibody)
# heavy: B1 heavy with V114A, H269Q, V280M, T294A, M295V, S298N
# B30: IgG1 Fc mutant P291S; K288E; H268L: A141V (antibody)
# heavy: B1 heavy with A24V, V114A, H151L, K171E, P174S, H269Q, M295V
# B31: IgG1 Fc mutant F275I, K334N, V348M (antibody)
# heavy: B1 heavy with V114A, F158I, K217N, V231M, H269Q, M295V
# B32: IgG1 Fc mutant T335N, K370E, A378V, T394M, S424L (antibody)
# heavy: B1 heavy with V114A, T218N, K253E, A261V, H269Q, T277M, M295V, S307L
# B33: IgG1 Fc mutant D280E, S354F, A431D, L441I (antibody)
# heavy: B1 heavy with V114A, D163E, S237F, H269Q, M295V, A314D, L324I
# B34: IgG1 Fc mutant T256S, V305I, K334E, N390S (antibody)
# heavy: B1 heavy with V114A, T139S, V188I, K217E, H269Q, N273S, M295V
# B35: IgG1 Fc mutant F243L, R255L, E318K (antibody)
# heavy: B1 heavy with V114A, F126L, R138L, E201K, H269Q, M295V
# B36: IgG1 Fc mutant P247L, A431V, S442F (antibody)
# heavy: B1 heavy with V114A, P130L, H269Q, M295V, A314V, S325F
# B37: IgG1 Fc mutant K334E, T359N, T366S, Q386R (antibody)
# heavy: B1 heavy with V114A, K217E, T242N, T249S, H269R, M295V
# Target: soluble dimeric FcγRIIB (extracellular domain fused to hinge-CH2-CH3 of human IgG2) (human) (UniProt P31994)
# Experiment: ELISA
row,Binding to FcγRIIB (ELISA) (fold decrease),Molecule
1,0.5,"IgG1 Fc mutant D399E, M428L (from UniProt P01857 1-330) (antibody)"

# Target: soluble monomeric FcγRIIIA (extracellular region joined to linker-AVITAG), allele not stated (human) (UniProt P08637)
# Sequence (P08637 17-208): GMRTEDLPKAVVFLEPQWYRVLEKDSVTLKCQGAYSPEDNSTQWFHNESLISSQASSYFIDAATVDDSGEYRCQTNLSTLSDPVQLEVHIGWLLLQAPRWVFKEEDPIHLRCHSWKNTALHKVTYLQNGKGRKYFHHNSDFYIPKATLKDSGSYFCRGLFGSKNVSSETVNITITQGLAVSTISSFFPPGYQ
# Experiment: ELISA
Binding to FcγRIIIA (ELISA) (fold decrease),Binding to FcγRIIIA (ELISA) (fold increase),Molecule
0.5,–,"IgG1 Fc mutant D399E, M428L (from UniProt P01857 1-330) (antibody)"
–,0.5,IgG1 Fc mutant H310Y; T289A; G337E (from UniProt P01857 1-330) (antibody)
–,0.5,"IgG1 Fc mutant S298N, S407R (from UniProt P01857 1-330) (antibody)"
–,0.5,IgG1 Fc mutant S407I (from UniProt P01857 1-330) (antibody)
–,0.5,IgG1 Fc mutant V348M; K334N; F275I; Y202M; K147T (from UniProt P01857 1-330) (antibody)
–,0.5,"IgG1 Fc mutant D312E, K327N, I378S (from UniProt P01857 1-330) (antibody)"
–,0.5,IgG1 Fc mutant S383N; N384K; T256N; V262L; K218E; R214I; K205E; F149Y; K133M (from UniProt P01857 1-330) (antibody)

# Target: T1, soluble dimeric FcγRIIB (extracellular …)
# Experiment: ELISA
Binding to FcγRIIB (ELISA),binding result,Molecule
6 fold increase,–,B1
1.5 fold increase,–,B2
1 fold increase,–,B3
7 fold increase,–,B4
–,no binding,B5
4.8 fold increase,–,B6
0.1 fold increase,–,B7
–,no binding,B8
0.25 fold decrease,–,B9
–,no binding,B10
10.8 fold increase,–,B11
5 fold increase,–,B12
0.25 fold decrease,–,B13
6.7 fold increase,–,B14
2.5 fold increase,–,B15
5 fold increase,–,B16
6 fold increase,–,B17
6.1 fold increase,–,B18
6 fold increase,–,B19
3 fold increase,–,B20
9.3 fold increase,–,B21
3.7 fold increase,–,B22
5 fold increase,–,B23
5.4 fold increase,–,B24
10 fold increase,–,B25
7 fold increase,–,B26
0.5 fold decrease,–,B27
–,no binding,B28
5 fold increase,–,B29

# Target: T2, soluble monomeric FcγRIIIA (extracellular region joined to linker-AVITAG), allele not stated (human, UniProt P08637 17-208)
# T2 construct: extracellular domain; also called FcRIIIA; CD16A; not shown: linker-AVITAG
# T2 sequence (P08637 17-208): as above
# Experiment: ELISA
Binding to FcγRIIIA (ELISA),binding result,Molecule
1.5 fold increase,–,B1
1.75 fold increase,–,B2
1.5 fold increase,–,B3
0.5 fold increase,–,B4
–,no binding,B5
1.1 fold increase,–,B6
3.6 fold increase,–,B7
–,no binding,B8
0.5 fold decrease,–,B9
–,no binding,B10
0.5 fold decrease,–,B30
0.5 fold increase,–,B31
1.3 fold increase,–,B11
0.5 fold increase,–,B12
0.75 fold increase,–,B13
0.5 fold increase,–,B32
3 fold increase,–,B33
1.3 fold increase,–,B14

Binding to FcγRIIIA (ELISA),binding result,Molecule
3 fold increase,–,B15
1.5 fold increase,–,B34
1.5 fold increase,–,B16
2.5 fold increase,–,B17
2.8 fold increase,–,B18
0.5 fold increase,–,B19
1 fold increase,–,B35
4 fold increase,–,B21
2.2 fold increase,–,B22
1 fold increase,–,B23
1.6 fold increase,–,B24
0.25 fold decrease,–,B25
1 fold increase,–,B26
–,no binding,B27
1 fold,–,B36
1 fold increase,–,B37
–,no binding,B28
0.25 fold increase,–,B29
